Experimental data from a protein production outcome set (Wang et al. 2014).

Assay: label from the status in PepcDB records

Q: With “MIERILASLILCLMLGIPFGMMFSFTGDVVLNFTFFWPLFMSGLWITGGLYFWFHYERHWRWGDGVIPDEPTGRPLVSILIPCYNEGPNVRETIEAALAQRYTHIEVIAVNDGSNDDTGDELNRLAEQYDKLRVIHLAHNQGKALALQAACAAAKSDLLVCIDGDALLDPDAVAYLINPLINNPRVGAVTGNPRIRTRSTLIGRIQVGEFSSIIGLIKRTQRVHGKVFTVSGVIAAFRRSALAEVGYWSPDMITEDIDISWKLQLRHWTIFFEPRALCWILMPEKLSGLWKQRLRWAQGGAEVFLKNFRHLWSWRYRRMWPLFLEYSISILWAFTYAVSVLLYLLGFLIELPEEIRVETLFPPAFTGMMIGVVCLIQFAVSMLIERRYEKDIGKYLFWVIWYPMVYWTLSLFTSLVSFPKVMLRSRKKRARWESPDRGIERG” as the sequence, how does the protein production read?
A: failed

Q: With “MIESMIIAGGMLVALLYMTACSDKLDVQQMYEFDLATLPVQTTIVKGEEAEIRCQLVRSGEYQDTKYFIRYFQPTGKGELRMENGTVLLPNDLYLLPEETFRLYYRSFGTDQQKIDIYILDSFGQVVQKSFAFNNLEHHHHHH” as the sequence, how does the protein production read?
A: failed

Q: With “MIEVAEIIAREIRRGKIVEIGVGFYLEVAKRLRESGIDILVVDINEKAINYARKQGIKGVVDDIFNPTLGIYKDAKAIYSIRPAPEMMKPLLDLARKLKIPLYIVPLTGDRTPNGMKLINYKGIPIYKWEP” as the sequence, how does the protein production read?
A: not failed

Q: Which protein production does the source give for “MIEVLSVITSATVQDLGRWGYQRYGVPVSGVMDEVSARIANYLVGNPDNTPLIEFTAGGISIKFHTSAVFAVTGDATLYLNDTQLEPWESYWAKRGDVLTVRLSKGMYGYIAFSGGIECRKILGSCSTYLRAKFGGLLKPGDKLKLGYSLLTGKAGKRLPEELRPRFDKTVRVILGPNIEHFTPEGMRTFLTSEYTVTPESDRMGYRLEGPRIEHSEKGADIITEPIPRGAIQVPANGKPIIMLADAQTTGGYAKIATVIRVDIPMVVQTRPGEKLRFKAVSVNEAVQELRKRERI” here?
A: not failed

Q: With “MIEVVCNDRLGKKVRVKCNTDDTIGDLKKLIAAQTGTRWNKIVLKKWYTIFKDHVSLGDYEIHDGMNLELYYQ” as the sequence, how does the protein production read?
A: not failed

Q: For “MIFASDLDQTLIYSRKSFRAHIEDNSIQLIETLDGKEISFITYKTITLLIKLQLHSYFIPVTTRTIEQFQRITLFQNEIIPEYAITSNGGNILHNGKQDVTWNKEIKKRISVECIERNDILKEFEQIAHKDWVISQKTADDLFHYCIIKRENIPYDELSSFTSWLDKQGWNHSLQGRKLYFVPKPINKWDAVQYIQEILQMDTIITAGDSLLDLCMLEKANYAFAPLHGELGATYNHLQPHIVKTDAIGIYAAEEIVSKSLQIIHSSSPTS”, which protein production is on record?
A: failed

Q: For “MIFDTEPDAMTLAPDDKPQDRHFDWSGVPIDLGGMEPLEQIARLLCHALVAPAAALTITEGGRLRVLAARGISSSHVEQAMELCKQVPPAPNGVTELIEHATLAQIKLGDAAFPGLPARFIACVPVGAPQTGISGTLCVIDTRERRLASQEHQQLLMFANVAAAQLELQFGAGRREPHSGLLNTRQLQSDLDALAFGSHSVPTIAAFIEVYDTQAANEARQALGMQPLEELVRHASYVLTRALRGKATVYHVASMRFAFFLLNSAPDEMEDLLLDLRDMLHKPVDAAGVPMSLTFHAGVVRFAPQQPDTNDVMRKGLVALGDAINNHAIVCWYSASHDDAIQRSYRLALDAEQALDAGDFRLVFQPRIDLEDLSVTGFEALLRWNHASMGPIGPDEFIPLFEKTALMCTVTNWVIESALVQLAKWRAQGLDFSMSINLSSRDFGNINLAADVINRCKDLAIPTTCIELEITEGRWLRSNVEAVPRLRALRDAGVSVAIDDFGTGYSNFGYLTELPVNVLKLDRSLVTGIATKTGMQMRAEAVVRLANALGYRTVAEGIEHADEIALLRSWGCDEAQGYLLAKPMEAHLVADYVKQTAALRRLP”, which protein production is on record?
A: failed

Q: For “MIFIESITNSVPWVNSLALTLNSPLLATTNEAENAPIVLTGVLLTLVVIYLASKIGGELSRLVDLPPVLGELVAGVLVGASALHLVVFPESGAVAGDSVIMTILQFINNLTPDAVTAIFQSQSEAVSVLAELGVIILLFEIGLESDLKELQKVGYQATIVACVGVAVPFTAGTVGLISIFHAPVIPAIFAGAALTATSIGITSKVLSELGQLKSREGQIIVGAAVIDDILGIIVLAVVASLAKTGEVDVLNVIYLIVSATVFLIGSILLGKYFNQSFVAIANKLQTRGNLIIPAFIFAFFMAFLGNAIHLEAILGAFAAGLVLDETDKRKELDEQVKPIADILVPIFFVTVGAKVDLSVLNPVVPGNREGLIIATFLIVVAIIGKIVTGWAVFGQPGINRLAVGVGMIPRGEVGLVFAGIGSASGALDKPLQAAIIIMVILTTFLAPPLLRFAFKQSEEIKELEKADLLG”, which protein production is on record?
A: failed

Q: With “MIFLIFSFIVLLIFGLANVYIYKRLIKKITLFKYFYKIFSFIFIVLFLAQAVFLIFRRDEYLSDTWYEILAMFYAPTYCLFFMTLAWDFVKLILALMGKRDKTYNLILRLIFELSLIVLSVFLIYVSINNALKTPEVKSVDVEIPNLKKDLKIVMLTDIHLGKNLHENFLDKLITKVNLQSPDMVVIVGDLIDTNPKDLKNYISKLNDFNSTYGTFYALGNHEYYHGINEVLDLLRKHTNMKILVNQNLDLGFINIAGLGDLAGLDRGLYAPDLARIKVDLNTSKASILLTHQPKTALLYDLSDFDLVLSGHTHGGQIFPFMFLVKLQQGFVHGLYDLGEKTKLYVSSGAGFWGPSLRVFAPSEIVILNLKGKK” as the sequence, how does the protein production read?
A: failed

Q: With “MIFMNMVNRERELQALKKRLSSNDLELIIIYGRRRIGKTFLIINAVNGYDFIYYLATEKNNLRKFKELTESKYEDIKYVKEDWEAIFHYLRDKIIIIDEFPYMIKEDESILSTFQKIVDETLKGSKTKLILLGSSISMMEDAISYKSPLYGRRTASIELKELKFKDLKGFNFSLIDAIHVYGFAGGVPFYLTKAKTPFLKWINAELKEVDSFIKDEIDFMLRYEFSEIGTYKEILHAISSGKNTLGEIKDFVRISGDVSSYLNKLEKIGIIGKEFPYKMKKGARYYIKDNFTLFWFTFIYPNLSLIEEGIYEIKEDEYNVYLGRIFEKIAREYVEDVYKVKVERLWFKDVEIDIYGDGIAGECKWSEGINGEKVLYELKRKVEDLGLDVKKYIIFAKSFSKTNEEAEFIDLKKLEQWYRTLEHHHHHH” as the sequence, how does the protein production read?
A: not failed

Q: For “MIFMRTEDVRRDIPLLRDHVYLDAASTTPTPLPVVRAMTEYFKEYNANTGRGAYSLVLRATRKLQEAREKVAGFINASSDEIVFTKNTSEAINIVAGGLRFRKGDSVVVPNIEHHSNFLPWLRLRERGVDVRVVKADEGGVVDPGRIEDAVDETTRLVTVTHISNALGTVQDVKEIGRIAHDVGALYLVDAAQSIGHMEVDVRAIGADFAAFPGHKGTLGPVGTGFLYCSTDVQGELEPLMLGGGTVLDVSEDGYVLEDFPAKFEAGTLNIAGFIGLGASIDYMNRIGIRRIQKHGMKMTEELHATVSSIDGIECYGDPQNIYGILSFNINNMDPHDVAKILDETAGICVRSGHHCAIPAMKHLALHETGGTVRASIHYYNTSEEIQLLGETLEEIAGMG”, which protein production is on record?
A: failed

Q: Which protein production does the source give for “MIFVLLICPLFIFIVSVIGTRKTKTYYVMPIVTFASFLIIGVIAFTPKFFFWVGMYSIFSFIVSYMTLLFVKGYEVAENAK” here?
A: failed

Q: For “MIGAILAGGYGKRLKPITDSIPKALVEIKDNYTIMDRQLFDFSIMGIEAVYILSGYLGNKIEERYGSRYRDMNIYYLREEKPLGTLYSLRNLIDEVKDDDIVLRNGDTVTDVNFLNFLKKAQDQKYYITMYVTRMKSPFGIVETFGDQIVQFREKPELNHYINAGLYYIKSDAFPYFFEKYIDRDLETTVFPRMAREGLIGSYTEEAMWIGIDSEKDLERIRADYRNREDYPWGYLKVLYDDDRSRLLEYAIKAGSDTEIDCGDGCILRIQSGLGTFGDSSDEKFRNGDVRSISGKVRVNAFENTRLELIISKKLEHHHHHH”, which protein production is on record?
A: failed

Q: Which protein production does the source give for “MIGDYERFKQLKKKVAEALNISEEELDRMIDKKIEENGGIILKDAALMMIAKEHGVYGEEKNDEEFLISDIEEGQIGVEITGVITDISEIKTFKRRDGSLGKYKRITIADKSGTIRMTLWDDLAELDVKVGDVIKIERARARKWRNNLELSSTSETKIKKLENYEGELPEIKDTYNIGELSPGMTATFEGEVISALPIKEFKRADGSIGKLKSFIVRDETGSIRVTLWDNLTDIDVGRGDYVRVRGYIREGYYGGLECTANYVEILKKGEKIESEEVNIEDLTKYEDGELVSVKGRVIAISNKKSVDLDGEIAKVQDIILDNGTGRVRVSFWRGKTALLENIKEGDLVRITNCRVKTFYDREGNKRTDLVATLETEVIKDENIEAPEYELKYCKIEDIYNRDVDWNDINLIAQVVEDYGVNEIEFEDKVRKVRNLLLEDGTGRIRLSLWDDLAEIEIKEGDIVEILHAYAKERGDYIDLVIGKYGRIIINPEGVEIKTNRKFIADIEDGETVEVRGAVVKILSDTLFLYLCPNCRKRVVEIDGIYNCPICGDVEPEEILRLNFVVDDGTGTLLCRAYDRRVEKMLKMNREELKNLTIEMVEDEILGEEFVLYGNVRVENDELIMVVRRVNDVDVEKEIRILEEME” here?
A: failed

Q: Which protein production does the source give for “MIGKRFFQTTSKKIAFAFDIDGVLFRGKKPIAGASDALKLLNRNKIPYILLTNGGGFSERARTEFISSKLDVDVSPLQIIQSHTPYKSLVNKYSRILAVGTPSVRGVAEGYGFQDVVHQTDIVRYNRDIAPFSGLSDEQVMEYSRDIPDLTTKKFDAVLVFNDPHDWAADIQIISDAINSENGMLNTLRNEKSGKPSIPIYFSNQDLLWANPYKLNRFGQGAFRLLVRRLYLELNGEPLQDYTLGKPTKLTYDFAHHVLIDWEKRLSGKIGQSVKQKLPLLGTKPSTSPFHAVFMVGDNPASDIIGAQNYGWNSCLVKTGVYNEGDDLKECKPTLIVNDVFDAVTKTLEKYA” here?
A: not failed

Q: For “MIGLNTAAIYILQTLGSLYLLIVLLRFILQLVRADFYNPLSQFIVRATKPLLNPLRRIIPGFGGIDLASLVLAILIQLVLMILILMLMGYGVGGFIMQLLIWSIIAVTSLFLKVFFFALIISVILSWVAPGSYNPGAQLVNQICEPLLMPFRKLLPNLGGLDLSPIFAFLALKLIDMLVINNLAAMTGMPQQLSIFL”, which protein production is on record?
A: failed

Q: For “MIGLNTAAIYVLQTLGSLYLLIILLRFVLQLVRANFYNPLCQFIVRATQPLLKPLRRIIPSLFGLDMSSLVLAIIVQMILMALTLLLMFGTTGDPLHLLLWSIIGVTALFLKIFFFALIISVILSWVAPGSHNPGAELVNQICEPALAPFRKIVPNLGGLDISPILAFLVLKLLDMLVINNLAAMSNMPDVLRLLM”, which protein production is on record?
A: failed

Q: For “MIGQTDQNIVITYSANIQQVKILYVDEKGSEVSSMLLKGNTDQTVNVSYSVPDHWIAISGQDSPLQYTFKAKDNKNIVIRIGHKLEDQENDIHKIIRNVNIVNPDGSVAKVSQTAIFTRVHQRDEVTGEEVYGNWDKISQDFNAIDIPKIFGYTATSSVGKMTVTPDSQSENITITYTADIQNNKIVIIDDESHGSQINTVGFTGKTGKSIAWQVTIPENYDLAAGGKISGNYTFNAVNQIPIEVHVRHKHVQDDESKSVTRTIVTNLPGLDKSEIVQTVTFSRIIDKDLVDGN”, which protein production is on record?
A: failed

Q: With “MIHAVAPCCPHAPRTTWEFHLRLLPLATALTLAVAMGVTPAQENRLPDIGSSAGELLTPARQAEYGKMMLAELRNYDYVLDDPLITDWLQTMGTRLGANSDQPQQPFTFFMLRDRQINAFATLGGYVAVNAGLVLTAEREDEVAAVLSHEIAHVTQQHVLRAVERAQRDQIPILLGMLAAVVAAQQAGGNSKGDATMATITSAMGLMQQRQIDYTRSNESEADRLGIRTLARSGYDVDAMAGFFERMSVAMRANEGGYSAPDFLQTHPVTVTRISEAKARAEQMKKNTVVLTTSVPGGSRQERVDPADPSLSEPLSHNGNALLPYALRLPVDALSRGADQQGFDWAKERLRVLSAATPDAAIREYENLRRSAKQGLSDAQRYGLALAKLRNSGGRPSEPVAELSSLLEAHPDNLWLALGLSQAQARVGQREAANARFDALLKQLPNNRAVALTYASALNEQASKESGQRARQVLEPLVHRSSDDPLLQQSYARACELSGDQLRASEAYAEAAFLNGRAEQALIQLEALKKKDLDYVTRARVDARIAAITPTVLELRRQGIRDPDLSTR” as the sequence, how does the protein production read?
A: failed
